Experimental data: publication doi:10.1101/2024.07.30.605797

Biological target: C-terminal His6-tagged VanA-type VanS^127-384 (cytoplasmic domain of the histidine kinase VanS) (UniProt Q06240)
Test: differential scanning fluorimetry

| Substance | Kd [µM] |
| --- | --- |
| siamycin I (peptide) | 38 |
| sviceucin (peptide) | 52 |
